Test results as given in publication PMC11818384, “Structural Characteristics and Properties of the RNA-Binding Protein hnRNPK at Multiple Physical States” (International Journal of Molecular Sciences, 2025).
Where “and” joins values, the source holds several entries; their conditions need not be identical. Equal entries are not always repeated.

What was measured:
[1] = molecular target: the molecule itself; assay: SEC-MALS; SEC-LS (RALS, RI, UV) on Superdex 200 Increase 10/300 at room temperature; hnRNPK sample incubated at room temperature
[2] = molecular target: the molecule itself; assay: SEC-MALS; SEC-LS (RALS, RI, UV) on Superdex 200 Increase 10/300 run at room temperature; hnRNPK sample kept at 4 °C (vial holder at 4 °C), low concentration

B1: Heterogeneous nuclear ribonucleoprotein K (hnRNPK), full-length wild type with an additional N-terminal glycine (natural protein)
chain: not shown
notes: additional glycine residue at the N-terminus, told in words; heterogeneous nuclear ribonucleoprotein K, full-length wild type; theoretical molar mass with the extra glycine 51,033 Da; also called H-hnRNPK; hydrogenated hnRNPK; source: E. coli Rosetta2 (DE3), purified (Ni Hi-trap, TEV cleavage, second Hi-trap, Superdex 200); not shown: His6, N-terminal, cleaved; eGFP, N-terminal, cleaved
B1 was tested, and the “stoichiometry N” value [1] was 2.88 hnRNPK molecules per particle (measured MM : theoretical MM) and 1.53 hnRNPK molecules per particle (measured MM : theoretical MM) and the “stoichiometry N” value [2] was 1.98 hnRNPK molecules per particle (measured MM : theoretical MM).
